Results: patent US20090208486A1

Molecular target: T1, mouse CXCR3 (mouse) (UniProt O88410)
T1 sequence (looked up): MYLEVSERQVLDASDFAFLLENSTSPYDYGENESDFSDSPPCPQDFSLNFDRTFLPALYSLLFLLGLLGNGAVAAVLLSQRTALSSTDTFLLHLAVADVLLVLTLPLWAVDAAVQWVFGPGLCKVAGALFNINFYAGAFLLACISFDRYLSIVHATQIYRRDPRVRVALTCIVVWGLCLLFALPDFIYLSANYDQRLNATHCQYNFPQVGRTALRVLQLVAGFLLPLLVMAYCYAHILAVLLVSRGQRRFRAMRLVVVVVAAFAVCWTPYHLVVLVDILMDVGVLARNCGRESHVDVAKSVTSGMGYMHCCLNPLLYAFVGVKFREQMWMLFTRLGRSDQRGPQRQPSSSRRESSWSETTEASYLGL
Experiment: cell-based or functional assay

With “recombinant CXCL10 (Peprotech, Inc.) (ligand)” the chemokine concentration at which chemotaxis/chemoinvasion responses of B16F10 cells were obtained was 50 to 100 ng/mL.

B1: recombinant CXCL9 (Peprotech, Inc.) (ligand, UniProt P18340 22-126, looked up, species assumed)
C-X-C motif chemokine 9: TLVIRNARCSCISTSRGTIHYKSLKDLKQFAPSPNCNKTEIIATLKNGDQTCLDPDSANVKKLMKEWEKKISQKKKQKRGKKHQKNMKNRKPKTPQSRRRSRKTT
For B1, the chemokine concentration at which chemotaxis/chemoinvasion responses of B16F10 cells were obtained was 50 to 100 ng/mL, the diffusely-stained B16F10 cell population 5 min after CXCL9 (100 ng/ml), phalloidin staining was 22.8% and the increase in intracellular Ca2+ concentration after CXCL9 (300 ng/ml) in CXCR3 antisense-transfectant B16F10 clones (CXCR3 protein reduced to about 20-25%) was 5%. For the same molecule, the increase in intracellular Ca2+ concentration of B16F10 cells after CXCL9 (300 ng/ml), Fluo-3 AM was 15 to 20% and the proportion of actin filament polarized B16F10 cells 5 min after CXCL9 (100 ng/ml), phalloidin staining was 38.4%.

B2: recombinant CXCL11 (Peprotech, Inc.) (ligand, UniProt O14625 22-94, looked up, species assumed)
C-X-C motif chemokine 11: FPMFKRGRCLCIGPGVKAVKVADIEKASIMYPSNNCDKIEVIITLKENKGQRCLNPKSKQARLIIKKVERKNF
B2 was tested, and the chemokine concentration at which chemotaxis/chemoinvasion responses of B16F10 cells were obtained was 50 to 100 ng/mL.
